# According to patent publication US20200000897A1 (published 2020):
# Target: T1, HLA-A*03:01 (human)
# T1 construct: MHC class I monomer first loaded with a UV-sensitive peptide that is cleaved by UV irradiation and exchanged for the test peptide; captured on streptavidin plates; also called peptide-receptive MHC molecules
# Assay: UV-ligand exchange, anti-b2m ELISA; peptide exchange yield grade (>10% +, >20% ++, >50% +++, >75% ++++)
# Summary of the method: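 HLA-A*03:01 complexes were formed by UV-induced exchange of a photocleavable peptide for the test peptide. Exchange yield was measured by ELISA: streptavidin capture of 100-fold diluted monomers, HRP-anti-β2m detection, TMB read at 450 nm, quantified against HLA-A*02:01 monomer standards (15–500 ng/ml) and graded by % yield.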
row,Binder,peptide exchange yield [%]
1,RAVSVNPGK,10 to 20
2,VVDDSQLPK,20 to 50
3,CLANYTVNK,> 75
4,RCFSGPYLNK,> 75
5,RTYTCQVTY,> 75
6,IINESLLFY,50 to 75
7,HMDEFKRTQK,50 to 75
8,RLLQHTPSAR,> 75
9,RVRALGSQY,> 75
10,GTHVWVGLYK,> 75
11,GMTLLCEALK,20 to 50
12,SVEGLSRRLK,50 to 75
13,KARDLRTPK,50 to 75
14,VIYVICRHK,50 to 75
15,FLGLAFHPK,20 to 50
16,IMKRQVKCITK,10 to 20
17,KRIPFRPLAK,20 to 50
18,QLYSPPSPSYR,> 75
19,IIFVPEMNK,> 75

# Other lines, results leading:
row,peptide exchange yield [%],Binder
1,> 75,ALCGTQLFY
2,20 to 50,VSVAGSILAK
3,50 to 75,AVAAVLLSR
4,50 to 75,RVSGSGGGGAGK
5,> 75,KLADSVMAGK
6,20 to 50,PLPRPGAVLK
7,> 75,RLASVGLDAK
8,50 to 75,TTNARILAR
9,> 75,RTALLWGLKK
10,10 to 20,IMPTFDLTK
11,50 to 75,KTGTFVLYKS
12,> 75,HLFLPFSYK
